Here are results for four molecules from EP4674868A1 (Jiangsu Hengrui Pharmaceuticals Co., Ltd., dated 2026).

Like-named read-outs stand apart in the source and are kept apart here.

Assay [1] deals with T1, h-FAP-His (recombinant human fibroblast activation protein, Leu26-Asp760, His-tagged) (human, UniProt Q12884 26-760).
T1 construct: range 26-760; Bought protein with a His tag; also called human FAP-His protein; His-tagged FAP recombinant protein
The assay can be described thus: SPR, antibody captured by anti-human IgG (Fc) on CM5 chip, h-FAP-His as analyte.

In assay [2] the target is T1, h-FAP-His (recombinant human fibroblast …). The assay can be described thus: ELISA, plate coated with human FAP-His.
For assay [3], the target named is T2, human FAP on the surface of CHO-K1 cells (CHO-K1-HuFAP) (human, UniProt Q12884 1-760).
T2 construct: whole, on cells; also called CHO cell line overexpressing human FAP; FAP on the surface of CHO-K1-HuFAP cells
The assay can be described thus: FACS, CHO cell line overexpressing human FAP. (A flow cytometer gives signals particle by particle.)

For assay [4], the target named is T3, human CD40 on the surface of HEK293 cells (HEK293-HuCD40) (human, UniProt P25942 21-277). The assay can be described thus: cell-based or functional assay.
For assay [5], the target named is T3, human CD40 on the surface of HEK293 …. The assay can be described thus: FACS, HEK293 cells transiently expressing human CD40.
For assay [6] the target is unchanged. The assay can be described thus: cell-based or functional assay. This is another data set of the same source.
Assay [7] has as its target T4, human 4-1BB on the surface of HEK293 cells (HEK293-Hu4-1BB) (human, UniProt Q07011 24-255).
T4 construct: whole, on cells; also called CD137; cell strain highly expressing human 4-1BB
The assay can be described thus: FACS, HEK293-Hu4-1BB cells.

Assay [8] concerns the target T2, human FAP on the surface of CHO-K1 …. The assay can be described thus: FACS, CHO-K1-HuFAP cells.
The target in assay [9] is T3, human CD40 on the surface of HEK293 …. The assay can be described thus: FACS, HEK293-HuCD40 cells.
Assay [10] has as its target T4, human 4-1BB on the surface of HEK293 …. The assay can be described thus: cell-based or functional assay.
Assay [11] concerns the target T3, human CD40 on the surface of HEK293 …. The assay can be described thus: FACS, HEK293-HuCD40 cells. This is another data set of the same source.
Assay [12] has as its target T2, human FAP on the surface of CHO-K1 …. The assay can be described thus: FACS, CHO-K1-HuFAP cells. The source holds these as a separate data set.
For assay [13], the target named is T4, human 4-1BB on the surface of HEK293 …. The assay can be described thus: FACS, HEK293-Hu4-1BB cells. This is another data set of the same source.
Assay [14] has as its target T3, human CD40 on the surface of HEK293 …. The assay can be described thus: cell-based or functional assay. This is another data set of the same source.
Assay [15] shares this target. The assay can be described thus: FACS, HEK293-HuCD40 cells. This is another data set of the same source.
The target of assay [16] is T4, human 4-1BB on the surface of HEK293 …. The assay can be described thus: FACS, HEK293-Hu4-1BB cells. This is another data set of the same source.
Assay [17] concerns the target T2, human FAP on the surface of CHO-K1 …. The assay can be described thus: FACS, CHO-K1-HuFAP cells. The source holds these as a separate data set.
Assay [18] has as its target T4, human 4-1BB on the surface of HEK293 …. The assay can be described thus: cell-based or functional assay. The source holds these as a separate data set.
Assay [19] shares this target. The assay can be described thus: cell-based or functional assay. This is another data set of the same source.

B1: anti-human FAP monoclonal antibody Ab10 (antibody, human IgG1, kappa, L234A L235A, V domains shown)
VH: QVQLQQSGVEVKKPGASVTVSCRASGYSFADHFIHWVRQAPGQGFQWMGWINPNRGVTHHAQDFQGRVAMTRDMSTDTVYMELTSLRSDDTAVYYCARDASLTARPYYFYGFDVWGQGTLVTVSS
VL: DIQMTQSPSSVSASVGDRVTITCRASQGISSWLAWYQQKPGKAPKLLIYAASSLQSGVPSRFSGSGSGTDFTLTISSLQPEDFATYYCQQANSFPPAFGQGTKVEIKR
notes: Full-length heavy and light chains with human constant regions; also called anti-FAP antibody Ab10
For B1, in assay [1], the Kd came out at 0.245 nM, the “Ratio of KD of 28H1 to KD of test antibody” value was 5.3, the “Ratio of Kd of 28H1 to Kd of test antibody” value is 3.5 and the koff came to 7.28e-05 s⁻¹. For the same molecule, the kon in assay [1] came out at 297000 M⁻¹ s⁻¹. In addition, the half-maximal effective concentration (EC50) in assay [2] was found to be 92 µg/mL. Besides, in [3], the half-maximal effective concentration (EC50) stood at 0.000432 µg/mL.

B2: anti-CD40 nanobody A297 linked to human IgG1-Fc (C220A, S267E, L328F) (Fc fusion)
chain: QVQLVESGGGMVEPGGSLRLSCAASGFTFSRYGMKWVRQAPGKGPEWVSTINSHGDTTYYADSVKGRFTISRDNAQNTVYLQMNSLKPEDTALYYCLRIDYSDYSSRGQGTQVTVSSEPKSADKTHTCPPCPAPELLGGPSVFLFPPKPKDTLMISRTPEVTCVVVDVEHEDPEVKFNWYVDGVEVHNAKTKPREEQYNSTYRVVSVLTVLHQDWLNGKEYKCKVSSKAFPAPIEKTISKAKGQPREPQVYTLPPSRDELTKNQVSLTCLVKGFYPSDIAVEWESNGQPENNYKTTPPVLDSDGSFFLYSKLTVDKSRWQQGNVFSCSVMHEALHNHYTQKSLSLSPGK
notes: VHH-Fc; no linker between VHH and Fc is stated
B2: the “FcγRIIb-mediated activation of HEK-Blue CD40L cells, EC50” value in [4] came out at 0.243 nM. The molecule further registered an EC50 in assay [5] of 1.12 nM.

B3: humanized anti-CD40 nanobody A297V3 linked to human IgG1-Fc (C220A, S267E, L328F) (Fc fusion)
chain: EVQLVESGGGLVQPGGSLRLSCAASGFTFSRYGMKWVRQAPGKGLEWVSTINSHGDTTYYADSVKGRFTISRDNAKNSLYLQMNSLRAEDTAVYYCLRIDYSDYSSRGQGTLVTVSSEPKSADKTHTCPPCPAPELLGGPSVFLFPPKPKDTLMISRTPEVTCVVVDVEHEDPEVKFNWYVDGVEVHNAKTKPREEQYNSTYRVVSVLTVLHQDWLNGKEYKCKVSSKAFPAPIEKTISKAKGQPREPQVYTLPPSRDELTKNQVSLTCLVKGFYPSDIAVEWESNGQPENNYKTTPPVLDSDGSFFLYSKLTVDKSRWQQGNVFSCSVMHEALHNHYTQKSLSLSPGK
notes: VHH-Fc
With B3, in [4], the “FcγRIIb-mediated activation of HEK-Blue CD40L cells, EC50” value is 0.006 nM. Besides, the EC50 in assay [5] was 1.25 nM.

B4: RO7122290 (FAP/4-1BBL bispecific antibody molecule, control) (bispecific antibody, human IgG1, kappa, L234A L235A)
heavy 1: not shown
heavy 2: EVQLLESGGGLVQPGGSLRLSCAASGFTFSSYAMSWVRQAPGKGLEWVSAIIGSGASTYYADSVKGRFTISRDNSKNTLYLQMNSLRAEDTAVYYCAKGWFGGFNYWGQGTLVTVSSASTKGPSVFPLAPSSKSTSGGTAALGCLVKDYFPEPVTVSWNSGALTSGVHTFPAVLQSSGLYSLSSVVTVPSSSLGTQTYICNVNHKPSNTKVDKKVEPKSCDKTHTCPPCPAPEAAGGPSVFLFPPKPKDTLMISRTPEVTCVVVDVSHEDPEVKFNWYVDGVEVHNAKTKPREEQYNSTYRVVSVLTVLHQDWLNGKEYKCKVSNKALGAPIEKTISKAKGQPREPQVCTLPPSRDELTKNQVSLSCAVKGFYPSDIAVEWESNGQPENNYKTTPPVLDSDGSFFLVSKLTVDKSRWQQGNVFSCSVMHEALHNHYTQKSLSLSPGK
light 1: not shown
light 2: EIVLTQSPGTLSLSPGERATLSCRASQSVTSSYLAWYQQKPGQAPRLLINVGSRRATGIPDRFSGSGSGTDFTLTISRLEPEDFAVYYCQQGIMLPPTFGQGTKVEIKRTVAAPSVFIFPPSDEQLKSGTASVVCLLNNFYPREAKVQWKVDNALQSGNSQESVTEQDSKDSTYSLSSTLTLSKADYEKHKVYACEVTHQGLSSPVTKSFNRGEC
Turning to B4, the “CD40/NF-κB reporter (HEK-Blue CD40L), 4-1BB-crosslinked, Fold change in Emax” value in assay [6] and in assay [14] was 1 fold throughout. Further, the “CD40/NF-κB reporter (HEK-Blue CD40L), FAP-crosslinked, Fold change in Emax” value in assay [6] and in assay [14] was 1 fold throughout. Further, the “CD40/NF-κB reporter (HEK-Blue CD40L), uncrosslinked, Fold change in Emax” value in [6] came out at 0.98 fold; in assay [14], 0.99 fold. Moreover, the Maximum fluorescence value turned out to be 10800 in assay [7]; 44200 in assay [8]; 106 in assay [9]; 2330 in [11]; 48400 in [12]; 8440 in assay [13]. Besides, the values for the Maximum fluorescence value in [15], in assay [16] and in assay [17] were 89, 8200 and 112000, respectively. Moreover, the EC50 in assay [8] amounted to 2.48 nM; in assay [12], 1.33 nM; in [13], 0.573 nM; in assay [16], 0.67 nM; in [17] it was 1.92 nM. The “4-1BB/NF-κB luciferase reporter, CD40-crosslinked, Fold change in Emax” value in [10] stood at 2.3 fold; in assay [18] it was 1.77 fold; in assay [19], 1.22 fold. The “4-1BB/NF-κB luciferase reporter, FAP-crosslinked, EC50” value in assay [10] stood at 0.04 nM; in [18], 0.04 nM; in assay [19], 0.032 nM. For the same molecule, the “4-1BB/NF-κB luciferase reporter, FAP-crosslinked, Fold change in Emax” value in [10] was found to be 9.95 fold; in assay [18] it was 15.4 fold; in assay [19] it was 9.38 fold. Also, the “4-1BB/NF-κB luciferase reporter, uncrosslinked, Fold change in Emax” value in assay [10] came to 5.97 fold; in assay [18], 6.03 fold; in [19], 3.6 fold.

By Kd is commonly meant a measure of binding affinity in units of concentration. What is called koff is the rate constant with which the complex falls apart. As usually defined, the kon is the second-order rate constant of association. By EC50 is commonly meant the concentration giving half of the maximal effect.
